{"source": "paper PMC5797146", "key": {"[1]": {"biological_target": "Clostridium difficile toxin A (Clostridium difficile) (UniProt P16154)"}, "[2]": {"biological_target": "Clostridium difficile toxin A (Clostridium difficile) (UniProt P16154)", "experiment": "SPR"}}, "note": "Where “and” joins values, the source holds several entries; their conditions need not be identical. Equal entries are not always repeated.", "data": [{"binder": "A26.8 VHH (parent) (VHH) VHH: QVKLEESGGGLVQAGGSLRLSCAASERTFSRYPVAWFRQAPGAEREFVAVISSTGTSTYYADSVKGRFTISRDNAKVTVYLQMNNLKREDTAVYFCAVNSQRTRLQDPNEYDYWGQGTQVTVSS", "values": [{"measurement": "other", "setting": "[1]", "result": "70 nM and 60%"}, {"measurement": "Kd", "setting": "[2]", "result": 18.7, "unit": "nM"}, {"measurement": "koff", "setting": "[2]", "result": 0.034, "unit": "s⁻¹"}, {"measurement": "kon", "setting": "[2]", "result": "1.8e+06", "unit": "M⁻¹ s⁻¹"}]}]}
